In IntAct's records for PubMed 11777938:

B1: Anaphase-promoting complex subunit 8 (Schizosaccharomyces pombe (strain ATCC 38366 / 972)), O94556 (parent)
chain: MTVSLNTMMGVDGLEDQEQLREIRNCLLKCISECSERGLVYAVRWAAEMLNGMNPIEMEHIPFSSTPTGEFDLDPDMANEKLLEVEEKNIYLLAKSYFDCKEFERAAYTLQNCKSSKSIFLRLYSKYLAGEKKSEEENETLLNTNLTLSSTNREFYYISEVLESLHYQGNKDPYLLYLSGVVYRKRKQDSKAIDFLKSCVLKAPFFWSAWLELSLSIDSLETLTTVVSQLPSTHIMTKIFYVYASHELHQVNSSAYEKLAEAEIIFPNSRYLKTQRALLTYDSRDFDEAESLFENILTNDPYRLDDMDTYSNVLFVLENKSKLGFLAQVASSIDKFRPETCSIIGNYYSLLSEHEKAVTYFKRALQLNRNYLSAWTLMGHEYVELKNTHAAIESYRLAVDVNRKDYRAWYGLGQTYEVLDMHFYALYYFQRATALRPYDQRMWQALGNCYEKIDRPQEAIKSYKRALLGSQTNSSILVRLGNLYEELQDLNSAASMYKQCIKTEETEISPETIKARIWLARWELGKKNYREAELYLSEVLNGDLELEEAKALLRELRSRMEHSYD
partner: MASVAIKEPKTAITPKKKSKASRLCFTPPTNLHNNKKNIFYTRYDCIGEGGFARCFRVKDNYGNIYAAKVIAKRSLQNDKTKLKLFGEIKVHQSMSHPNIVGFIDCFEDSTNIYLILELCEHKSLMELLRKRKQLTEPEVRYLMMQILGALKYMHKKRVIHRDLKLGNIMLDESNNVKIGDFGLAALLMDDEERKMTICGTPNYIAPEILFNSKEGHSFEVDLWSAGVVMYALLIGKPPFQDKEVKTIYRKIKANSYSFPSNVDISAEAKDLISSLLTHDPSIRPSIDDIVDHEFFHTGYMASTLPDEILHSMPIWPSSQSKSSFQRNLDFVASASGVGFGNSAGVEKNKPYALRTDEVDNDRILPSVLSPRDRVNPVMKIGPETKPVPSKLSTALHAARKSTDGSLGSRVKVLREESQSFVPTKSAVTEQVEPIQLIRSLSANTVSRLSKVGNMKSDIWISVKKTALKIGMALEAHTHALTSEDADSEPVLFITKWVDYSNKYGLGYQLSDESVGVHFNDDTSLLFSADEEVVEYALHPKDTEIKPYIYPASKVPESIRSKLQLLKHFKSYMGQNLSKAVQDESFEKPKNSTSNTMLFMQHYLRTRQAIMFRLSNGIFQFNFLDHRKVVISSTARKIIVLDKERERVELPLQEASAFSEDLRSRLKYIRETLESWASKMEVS

Variants of: B1
Details: with plo1_schpo plo1, P50528

Row | Variant | effect of a mutation on the interaction
1 | MTVSLNTMMGVDGLEDQEQLREIRNCLLKCISECSERGLVYAVRWAAEMLNGMNPIEMEHIPFSSTPTGEFDLDPDMANEKLLEVEEKNIYLLAKSYFDCKEFERAAYTLQNCKSSKSIFLRLYSKYLAGEKKSEEENETLLNTNLTLSSTNREFYYISEVLESLHYQGNKDPYLLYLSGVVYRKRKQDSKAIDFLKSCVLKAPFFWSAWLELSLSIDSLETLTTVVSQLPSTHIMTKIFYVYASHELHQVNSSAYEKLAEAEIIFPNSRYLKTQRALLTYDSRDFDEAESLFENILTNDPYRLDDMDTYSNVLFVLENKSKLGFLAQVASSIDKFRPETCSIIGNYYNLLSEHEKAVTYFKRALQLNRNYLSAWTLMGHEYVELKNTHAAIESYRLAVDVNRKDYRAWYGLGQTYEVLDMHFYALYYFQRATALRPYDQRMWQALGNCYEKIDRPQEAIKSYKRALLGSQTNSSILVRLGNLYEELQDLNSAASMYKQCIKTEETEISPETIKARIWLARWELGKKNYREAELYLSEVLNGDLELEEAKALLRELRSRMEHSYD [S349N] | decreasing interaction
